The values that follow come from patent US20150166663A1.

For assay [1], the target named is cynomolgus β6 on transfected HEK-293 cells (cynomolgus). Description: FACS, transiently transfected HEK-293 cells. (In general: A flow cytometer gives signals particle by particle.)
The target of assay [2] is cynomolgus αVβ6 on cells (cynomolgus). As to the kind of experiment: FACS, transiently transfected HEK-293 cells.
In assay [3] the target is mouse αVβ6 on cells (mouse) (UniProt P43406). Description: FACS, K562 cells expressing mouse αVβ6 (parental 46).
Assay [4] deals with cynomolgus αVβ6 on cells (cynomolgus). As to the kind of experiment: FACS, K562 cells expressing cynomolgus αVβ6 (parental 46).
The target in assay [5] is α4β1 integrin on J6.77 cells (UniProt P13612). Description: cell-based or functional assay.
Assay [6] concerns the target human αV on parental A375M cells (αVβ3 and αVβ5) (human) (UniProt P06756). As to the kind of experiment: FACS, parental A375M cells, day 1.
In assay [7] the target is cynomolgus αVβ6 on cells (cynomolgus). Description: FACS, HEK-293 cells transfected with cynomolgus αV and β6, day 2.
Assay [8] has as its target human αV on parental A375M cells (αVβ3 and αVβ5) (human) (UniProt P06756). As to the kind of experiment: FACS, parental A375M cells, day 2.
The target of assay [9] is cynomolgus αVβ6 on cells (cynomolgus). As to the kind of experiment: FACS, HEK-293 cells transfected with cynomolgus αV and β6, day 1.
Assay [10] concerns the target α5β1 integrin on K562 cells (UniProt P08648). Description: cell-based or functional assay.
The target of assay [11] is human αV on parental A375M cells (αVβ3 and αVβ5) (human) (UniProt P06756). Description: cell-based or functional assay.
Assay [12] has as its target cynomolgus αVβ6 on cells (cynomolgus). As to the kind of experiment: FACS, K562 cells expressing cynomolgus αVβ6 (parental 12).
In assay [13] the target is mouse αVβ6 on cells (mouse) (UniProt P43406). As to the kind of experiment: FACS, K562 cells expressing mouse αVβ6 (parental 12).
Assay [14] concerns the target cynomolgus αVβ6 on cells (cynomolgus). As to the kind of experiment: FACS, K562 cells expressing cynomolgus αVβ6 (parental 23).
Assay [15] deals with mouse αVβ6 on cells (mouse) (UniProt P43406). As to the kind of experiment: FACS, K562 cells expressing mouse αVβ6 (parental 23).
Assay [16] concerns the target human αV on parental A375M cells (αVβ3 and αVβ5) (human) (UniProt P06756). As to the kind of experiment: FACS, 1 ug/ml, parental A375M cells, day 1.
The target of a further assay is soluble αVβ6 (human) (UniProt P06756). Description: ELISA, 1 ug/mL on coated soluble αVβ6. For orientation: ELISA stands for enzyme-linked immunosorbent assay.
Assay [17] deals with mouse αVβ6 on cells (mouse) (UniProt P43406). As to the kind of experiment: FACS, K562 cells expressing mouse αVβ6 (parental 15).
Assay [18] deals with human αVβ6 integrin on cells (human) (UniProt P06756). Description: FMAT, 1 ug/mL on HEK 293 cells stably overexpressing αVβ6.
In assay [19] the target is cynomolgus αVβ6 on cells (cynomolgus). As to the kind of experiment: FACS, K562 cells expressing cynomolgus αVβ6 (parental 15).
Assay [20] addresses human αV on parental A375M cells (αVβ3 and αVβ5) (human) (UniProt P06756). Description: FACS, 1 ug/ml, parental A375M cells, day 2.
For assay [21], the target named is cynomolgus αVβ6 on cells (cynomolgus). As to the kind of experiment: FACS, 1 ug/ml, HEK-293 cells transfected with cynomolgus αV and β6, day 1.
Assay [22] has the same target. Description: FACS, 1 ug/ml, HEK-293 cells transfected with cynomolgus αV and β6, day 2.
Assay [23] addresses human αVβ6 integrin on cells (human) (UniProt P06756). As to the kind of experiment: cell-based or functional assay.

Sequence of human αVβ6 integrin on cells (human) (P06756 31-1048, chain 1 of 2): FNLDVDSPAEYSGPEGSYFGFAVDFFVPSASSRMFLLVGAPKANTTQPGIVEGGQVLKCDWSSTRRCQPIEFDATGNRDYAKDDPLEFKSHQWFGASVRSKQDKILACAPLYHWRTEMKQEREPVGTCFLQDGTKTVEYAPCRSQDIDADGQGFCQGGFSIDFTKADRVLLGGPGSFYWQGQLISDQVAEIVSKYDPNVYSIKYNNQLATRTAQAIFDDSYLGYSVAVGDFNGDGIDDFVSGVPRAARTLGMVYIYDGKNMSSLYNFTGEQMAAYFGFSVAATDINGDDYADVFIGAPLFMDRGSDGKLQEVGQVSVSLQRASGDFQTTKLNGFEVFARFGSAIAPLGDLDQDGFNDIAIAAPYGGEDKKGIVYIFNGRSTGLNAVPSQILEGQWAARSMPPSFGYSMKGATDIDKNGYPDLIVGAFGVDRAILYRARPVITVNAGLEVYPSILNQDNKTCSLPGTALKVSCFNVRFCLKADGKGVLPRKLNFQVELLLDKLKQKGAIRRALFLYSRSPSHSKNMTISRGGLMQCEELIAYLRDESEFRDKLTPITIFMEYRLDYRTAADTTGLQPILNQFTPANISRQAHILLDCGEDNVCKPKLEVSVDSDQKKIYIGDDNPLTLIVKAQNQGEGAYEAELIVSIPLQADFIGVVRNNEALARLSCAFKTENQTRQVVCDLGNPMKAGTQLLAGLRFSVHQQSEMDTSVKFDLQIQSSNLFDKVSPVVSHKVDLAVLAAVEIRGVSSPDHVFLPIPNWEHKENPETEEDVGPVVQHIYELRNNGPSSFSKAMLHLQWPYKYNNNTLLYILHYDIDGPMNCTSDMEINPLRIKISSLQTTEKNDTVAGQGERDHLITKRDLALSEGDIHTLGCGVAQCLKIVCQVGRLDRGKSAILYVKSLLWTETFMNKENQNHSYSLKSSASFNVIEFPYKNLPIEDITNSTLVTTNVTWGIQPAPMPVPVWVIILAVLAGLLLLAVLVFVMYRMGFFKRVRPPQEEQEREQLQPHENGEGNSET
Sequence of human αVβ6 integrin on cells (human) (P18564 22-788, chain 2 of 2, further chain): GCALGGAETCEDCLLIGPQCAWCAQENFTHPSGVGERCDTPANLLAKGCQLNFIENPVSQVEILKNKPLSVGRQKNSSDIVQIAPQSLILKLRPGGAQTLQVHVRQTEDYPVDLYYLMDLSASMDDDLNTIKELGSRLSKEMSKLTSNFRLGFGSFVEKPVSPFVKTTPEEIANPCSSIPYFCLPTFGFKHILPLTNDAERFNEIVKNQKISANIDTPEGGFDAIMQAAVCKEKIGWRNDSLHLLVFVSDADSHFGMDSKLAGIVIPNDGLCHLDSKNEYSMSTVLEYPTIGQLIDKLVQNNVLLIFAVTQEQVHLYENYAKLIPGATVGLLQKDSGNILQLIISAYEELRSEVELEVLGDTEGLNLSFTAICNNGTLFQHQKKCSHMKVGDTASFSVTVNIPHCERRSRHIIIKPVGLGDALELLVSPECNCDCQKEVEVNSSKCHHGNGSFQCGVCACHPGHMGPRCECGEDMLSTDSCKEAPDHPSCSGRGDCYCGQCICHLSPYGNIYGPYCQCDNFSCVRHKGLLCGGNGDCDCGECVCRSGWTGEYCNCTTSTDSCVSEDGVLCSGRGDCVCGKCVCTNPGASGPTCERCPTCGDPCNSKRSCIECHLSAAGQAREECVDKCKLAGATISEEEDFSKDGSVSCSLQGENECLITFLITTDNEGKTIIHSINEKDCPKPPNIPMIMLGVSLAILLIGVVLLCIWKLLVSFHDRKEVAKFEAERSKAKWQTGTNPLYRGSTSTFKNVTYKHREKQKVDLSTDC
Sequence of mouse αVβ6 on cells (mouse) (P43406 31-1044, chain 1 of 2): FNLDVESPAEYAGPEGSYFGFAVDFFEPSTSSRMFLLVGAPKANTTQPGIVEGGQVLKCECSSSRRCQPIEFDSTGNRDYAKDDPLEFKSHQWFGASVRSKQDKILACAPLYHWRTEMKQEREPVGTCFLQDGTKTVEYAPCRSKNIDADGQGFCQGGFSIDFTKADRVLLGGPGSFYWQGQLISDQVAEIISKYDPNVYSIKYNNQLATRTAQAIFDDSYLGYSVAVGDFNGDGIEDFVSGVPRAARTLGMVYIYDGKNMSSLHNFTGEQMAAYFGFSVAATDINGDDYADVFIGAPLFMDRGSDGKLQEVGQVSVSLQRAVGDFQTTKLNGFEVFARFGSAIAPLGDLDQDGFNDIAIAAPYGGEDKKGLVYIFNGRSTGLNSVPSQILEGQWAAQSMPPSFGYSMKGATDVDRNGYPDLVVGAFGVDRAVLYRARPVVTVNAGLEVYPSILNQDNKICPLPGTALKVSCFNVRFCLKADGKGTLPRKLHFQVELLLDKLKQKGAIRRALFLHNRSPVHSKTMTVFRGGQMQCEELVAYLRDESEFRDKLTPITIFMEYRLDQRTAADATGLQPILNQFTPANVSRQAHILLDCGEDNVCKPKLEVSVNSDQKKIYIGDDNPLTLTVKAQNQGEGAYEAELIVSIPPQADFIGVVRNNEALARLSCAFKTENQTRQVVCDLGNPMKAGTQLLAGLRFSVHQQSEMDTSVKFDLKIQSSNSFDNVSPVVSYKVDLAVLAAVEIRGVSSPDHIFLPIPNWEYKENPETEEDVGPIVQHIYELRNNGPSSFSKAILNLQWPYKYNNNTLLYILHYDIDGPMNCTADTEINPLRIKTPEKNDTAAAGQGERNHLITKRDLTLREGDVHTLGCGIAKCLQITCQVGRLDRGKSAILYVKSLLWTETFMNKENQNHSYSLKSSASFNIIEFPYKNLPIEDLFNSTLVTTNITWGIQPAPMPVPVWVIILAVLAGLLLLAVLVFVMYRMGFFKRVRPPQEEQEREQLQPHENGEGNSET
Sequence of mouse αVβ6 on cells (mouse) (Q9Z0T9 22-787, chain 2 of 2, further chain): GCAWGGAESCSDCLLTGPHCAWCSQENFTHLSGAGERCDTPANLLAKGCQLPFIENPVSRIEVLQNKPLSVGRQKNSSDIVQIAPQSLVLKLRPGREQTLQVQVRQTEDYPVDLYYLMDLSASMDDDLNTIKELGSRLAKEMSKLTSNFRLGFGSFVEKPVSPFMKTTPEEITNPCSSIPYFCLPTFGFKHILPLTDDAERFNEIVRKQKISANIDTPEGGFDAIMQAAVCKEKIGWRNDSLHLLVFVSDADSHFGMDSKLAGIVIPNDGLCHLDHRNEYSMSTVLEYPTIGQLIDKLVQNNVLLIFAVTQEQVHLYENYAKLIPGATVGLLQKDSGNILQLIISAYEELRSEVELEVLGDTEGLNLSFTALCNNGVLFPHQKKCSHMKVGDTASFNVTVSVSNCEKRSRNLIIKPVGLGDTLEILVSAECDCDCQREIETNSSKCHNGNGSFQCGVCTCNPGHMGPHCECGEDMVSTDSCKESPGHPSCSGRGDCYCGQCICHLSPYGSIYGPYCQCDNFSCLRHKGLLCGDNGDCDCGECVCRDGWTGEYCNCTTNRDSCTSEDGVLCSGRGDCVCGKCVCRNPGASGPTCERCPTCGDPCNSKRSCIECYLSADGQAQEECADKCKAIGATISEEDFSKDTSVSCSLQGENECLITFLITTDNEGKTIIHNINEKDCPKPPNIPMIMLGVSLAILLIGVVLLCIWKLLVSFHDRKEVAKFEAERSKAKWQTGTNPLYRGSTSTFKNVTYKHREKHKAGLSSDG

Consider Human IgG1 (antibody), for which the percent of cells shifted amounted to 1% in assay [1] and 0% in assay [2]. Besides, the values for the Geometric Mean Shift (arbitrary units) in assay [3] and in assay [4] were 108 and 54, respectively. The substance also displayed a Percent Inhibition, adhesion of J6.77 cells to CS-1 peptide of fibronectin, 5 ug/ml in assay [5] of 26%. Further, in assay [5], the Percent Inhibition, adhesion of J6.77 cells to CS-1 peptide of fibronectin, 5 µg/ml was -6%.
Consider Human IgG2 (antibody), for which, in [5], the Percent Inhibition, adhesion of J6.77 cells to CS-1 peptide of fibronectin, 5 ug/ml came to 13% and the Percent Inhibition, adhesion of J6.77 cells to CS-1 peptide of fibronectin, 5 µg/ml is -9%.
In the case of Human IgG4 (antibody), the Percent Inhibition, adhesion of J6.77 cells to CS-1 peptide of fibronectin, 5 ug/ml in assay [5] came out at 15%.
Regarding Human IgG Isotype Control (antibody), in assay [6], the A375M % Shifted Cells amounted to 5% and the A375M GeoMean stood at 1.66. In assay [7], the Mac AVB6 % Cells Shifted is 0% and the Mac AVB6 GeoMean stood at 7.39. Also, in assay [8], the A375M % Shifted Cells came out at 1% and the A375M GeoMean came to 7.23. Moreover, in assay [9], the Mac AVB6 % Cells Shifted amounted to 1% and the Mac AVB6 GeoMean is 9.54. Moreover, in [10], the % Inhibition, adhesion of K562 cells to fibronectin is -12% and the Percent Inhibition, adhesion of K562 cells to FN9-10 peptide of fibronectin, 5 µg/ml is 11%. For the same substance, the Percent Inhibition, adhesion of A375M cells to osteopontin peptide, 5 µg/ml in [11] is 3%.
Turning to Mouse IgG1 (antibody), the Geometric Mean Shift (arbitrary units) in assay [12] turned out to be 13; in assay [13], 20.
Take “Mouse IgG2 with Murine Secondary Antibody”: in assay [6], the A375M % Shifted Cells was 4% and the A375M GeoMean is 1.67. In [7], the Mac AVB6 % Cells Shifted amounted to 0% and the Mac AVB6 GeoMean was 11.2. Further, in assay [8], the A375M % Shifted Cells is 3% and the A375M GeoMean turned out to be 11.2. In assay [9], the Mac AVB6 % Cells Shifted stood at 1% and the Mac AVB6 GeoMean was 8.85.
In the case of Mouse IgG2a (antibody), the values for the Geometric Mean Shift (arbitrary units) in assay [14] and in assay [15] were 25 and 36, respectively.
In the case of Mouse IgG Control (antibody), the Percent Inhibition, adhesion of A375M cells to osteopontin peptide, 5 µg/ml in [11] stood at 5%.
Turning to “murine αVβ6 antibody (Cat#MAB2077z, Chemicon)”, the percent of cells shifted in [1] amounted to 5%; in assay [2] it was 20%. The A375M % Shifted Cells in assay [16] amounted to 30%; in [20] it was 5%. The A375M GeoMean was 2.03 in assay [16] and 15.4 in assay [20]. In the assay with soluble αVβ6 (human), this substance came in with an ELISA OD of 6 OD. Moreover, the Geometric Mean Shift (arbitrary units) in assay [17] was 122; in [19], 84. The substance further came in with an FMAT FL1XCount in assay [18] of 44200. Moreover, the Mac AVB6 % Cells Shifted in assay [21] stood at 42%; in assay [22], 11%. The Mac AVB6 GeoMean came to 55.5 in [21] and 28.1 in [22]. For the same substance, the Estimated IC50, adhesion of HT29 cells to TGFβLAP, n = 1 in [23] is 0.226 µg/mL. The Estimated IC50, adhesion of HT29 cells to TGFβLAP, n = 2 in [23] was 0.185 µg/mL. Also, the Estimated IC50, adhesion of HT29 cells to TGFβLAP, n = 3 in assay [23] is 0.286 µg/mL.
